# Data: patent US20200263158
# T1: tau FRET peptide OP-002, MCA-GGQVEVKSE{Lys(DNP)}
# T1 chain: GGQVEVKSE
# T2: tau 4R2N peptide (amino acids 335-353)
# T2 chain: GQVEVKSEKLDFKDRVQSK
# B1: Tau 4R2N 260-340 (TP-81) (protein)
# chain: MIGSTENLKHQPGGGKVQIINKKLDLSNVQSKCGSKDNIKHVPGGGSVQIVYKPVDLSKVTSKCGSLGNIHHKPGGGQVEVK
# B2: TP-210 (Tau 4R2N 131-340) (protein)
# chain: MSKDGTGSDDKKAKGADGKTKIATPRGAAPPGQKGQANATRIPAKTPPAPKTPPSSGEPPKSGDRSGYSSPGSPGTPGSRSRTPSLPTPPTREPKKVAVVRTPPKSPSSAKSRLQTAPVPMPDLKNVKSKIGSTENLKHQPGGGKVQIINKKLDLSNVQSKCGSKDNIKHVPGGGSVQIVYKPVDLSKVTSKCGSLGNIHHKPGGGQVEVK
# B3: TP-99 (Tau 4R2N 241-340) (protein)
# chain: MRLQTAPVPMPDLKNVKSKIGSTENLKHQPGGGKVQIINKKLDLSNVQSKCGSKDNIKHVPGGGSVQIVYKPVDLSKVTSKCGSLGNIHHKPGGGQVEVK
# Key:
# [1] = tested on: blue casein (zymogram gel substrate)
# [2] = molecular target: T1, tau FRET peptide OP-002, …
# [3] = molecular target: T2, tau 4R2N peptide (amino acids 335-353)
molecule,measurement,setting,value
recombinant human tau 4R2N (full-length tau protein),"zymogram, clearing of blue casein",[1],tau had the ability to cut the casein protein substrate in the zymogram
same,"autoproteolysis, N-terminal Edman sequencing of fragment F3",,The N-terminal sequence of fragment F3 was determined to be SEKLDF corresponding to amino acids 341-346 of Tau 4R2N
same,"autoproteolysis, N-terminal Edman sequencing of fragments 1-4",,The N-terminal sequence of the four fragments was the same: SKDGTG
B1,"fluorescence of FRET peptide, plate reader",[2],Tau 4R2N 260-340 cuts tau FRET peptide
B2,"cleavage of peptide substrate, reverse-phase HPLC",[3],intact peptide was greatly diminished in the upper trace and replaced with two smaller peaks F1 and F2 that represent fragments generated by TP-210
B3,"cleavage of peptide substrate, reverse-phase HPLC",[3],intact peptide which is greatly diminished in the upper trace and replaced with two smaller peaks F1 and F2 that represent fragments generated by TP-99
